Measurements as given in US20260242478A1 (published 2026).

B1: Phage-1549 (peptide)
peptide: TCAAGATYSWPDCF
notes: tested as crude phage supernatant
B2: Phage-1548 (peptide)
peptide: ICAAGFIWSWPACF
notes: as for B1
B3: Phage-1552 (peptide)
peptide: PCAAGAMWAWPYCL
notes: as for B1
B4: Phage-1529 (Peptide-92 library sequence, SEQ ID NO: 1825) (peptide)
peptide: TCAAGATYPWPECM
B5: Phage-1547 (peptide)
peptide: SCAAGAHYKWPVCI
notes: as for B1
B6: Phage-1527 (Peptide-92 library sequence, SEQ ID NO: 1823) (peptide)
peptide: TCSAGFSYKWPWCL
B7: Phage-1551 (peptide)
peptide: TCAAGAHYLWPHCL
notes: as for B1
B8: Phage-1550 (peptide)
peptide: QCAAGAMWTWPVCF
notes: as for B1
B9: Phage-1531 (Peptide-92 library sequence, SEQ ID NO: 1827) (peptide)
peptide: MCTAGATYPWPACL
B10: Phage-1530 (Peptide-92 library sequence, SEQ ID NO: 1826) (peptide)
peptide: LCAAGFNYPWPLCL
B11: Phage-1526 (Peptide-92 library sequence, SEQ ID NO: 1822) (peptide)
peptide: SCAAGATFHWPMCF
B12: Phage-1555 (peptide)
peptide: TCAAGATYTWPTCF
notes: as for B1
B13: Phage-1558 (peptide)
peptide: TCAAGAHYTWPTCL
notes: as for B1
B14: Phage-1553 (peptide)
peptide: NCSAGATWPWPMCF
notes: as for B1
B15: Phage-1554 (peptide)
peptide: TCAAGVHFGWPLCF
notes: as for B1
B16: Phage-1556 (peptide)
peptide: TCAAGASWEWPACL
notes: as for B1
B17: Phage-1528 (Peptide-92 library sequence, SEQ ID NO: 1824) (peptide)
peptide: TCAAGAMWTWPECL
B18: Phage-1557 (peptide)
peptide: TCAAGAMYQWPECF
notes: as for B1

Assays:
[1] = target: T1, Anti-CD28 Fab (SEQ ID NOs: 696, 697); assay: phage binding ELISA on captured anti-CD28 Fab; competitor: CD28 antigen pre-incubated in the well;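 note: clonal phage supernatants added briefly to wells preblocked with or without CD28, bound phage detected through an HRP-linked anti-M13 antibody, wells with blocking buffer alone as comparison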
T1 construct: Biotinylated and captured on neutravidin coated plates in the phage ELISA
T1 sequence (VH, as listed by the source, chain 1 of 2): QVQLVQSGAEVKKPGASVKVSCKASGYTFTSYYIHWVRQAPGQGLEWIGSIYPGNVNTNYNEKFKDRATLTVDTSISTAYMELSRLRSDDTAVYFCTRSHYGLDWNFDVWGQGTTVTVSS
T1 sequence (VL, as listed by the source, chain 2 of 2): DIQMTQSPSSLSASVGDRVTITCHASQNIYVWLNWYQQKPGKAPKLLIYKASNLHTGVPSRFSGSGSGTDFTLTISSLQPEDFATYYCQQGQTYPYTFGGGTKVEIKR
Description: (§1) Clonal phage were harvested as crude supematants and screened via standard ELISAs. […] Prior to the addition of clonal phage, wells were incubated with blocking buffer and CD28 antigen or blocking buffer alone. Without washing or aspirating, clonal phage supematants were then added to the wells and incubated for a short time. Wells were then washed followed by detection of bound phage using a horse radish conjugated anti-M13 antibody. Clonal phage of interest were then sent for sequence analysis.

[2] = target: T1, Anti-CD28 Fab (SEQ ID NOs: 696, 697); assay: phage binding ELISA; biotinylated anti-CD28 Fab on neutravidin plate, clonal phage detected with anti-M13-HRP;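 note: crude clonal phage supernatants added briefly to wells preincubated in blocking buffer with or without CD28 antigen, then washed before detection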
Description: as §1

[3] = target: T2, Anti-CD28 Fab (SEQ ID NOs: 696, 697); assay: phage binding ELISA on plate-captured anti-CD28 Fab pre-incubated with CD28 antigen (competitor: CD28)
T2 construct: In the phage ELISA the Fab was biotinylated and captured on neutravidin coated plates
T2 sequence (VH, as listed by the source, chain 1 of 2): as the sequence (VH, as listed by the source, chain 1 of 2) above
T2 sequence (VL, as listed by the source, chain 2 of 2): as the sequence (VL, as listed by the source, chain 2 of 2) above
Description: (§2) Clonal phage were harvested as crude supematants and screened via standard ELISAs. […] Prior to the addition of clonal phage, wells were incubated with blocking buffer and CD28 antigen or blocking buffer alone. Without washing or aspirating, clonal phage supematants were then added to the wells and incubated for a short time. Wells were then washed followed by detection of bound phage using a horse radish conjugated anti-M13 antibody.

[4] = target: T2, Anti-CD28 Fab (SEQ ID NOs: 696, 697); assay: phage binding ELISA; clonal phage on plate-captured biotinylated anti-CD28 Fab, anti-M13 HRP detection
Description: as §2

Row | Binder | Anti-CD28 Fab signal in the presence of CD28 (phage binding ELISA) [1] | Anti-CD28 Fab signal (phage binding ELISA) [2] | Anti-CD28 Fab signal in the presence of CD28 [3] | Anti-CD28 Fab (SEQ ID NOs: 696, 697) signal [4]
1 | B1 | 0.06 | 1.51 |  | 
2 | B2 | 0.08 | 1.51 |  | 
3 | B3 | 0.05 | 1.49 |  | 
4 | B4 |  |  | 0.06 | 1.57
5 | B5 | 0.06 | 1.51 |  | 
6 | B6 |  |  | 0.06 | 1.57
7 | B7 | 0.12 | 1.5 |  | 
8 | B8 | 0.07 | 1.5 |  | 
9 | B9 |  |  | 0.07 | 1.56
10 | B10 |  |  | 0.05 | 1.57
11 | B11 |  |  | 0.09 | 1.57
12 | B12 | 0.05 | 1.48 |  | 
13 | B13 | 0.07 | 1.47 |  | 
14 | B14 | 0.1 | 1.49 |  | 
15 | B15 | 0.07 | 1.49 |  | 
16 | B16 | 0.08 | 1.48 |  | 
17 | B17 |  |  | 0.07 | 1.57
18 | B18 | 0.06 | 1.48 |  | 
